# Measured values published in the Human Domainome abundance scans (Beltran et al. 2025).
# ± gives the uncertainty stated by the source.
# B1: CD2-associated protein, residues 271 to 331; numbered along this chain, Q9Y5K6 (parent)
# chain: KEYCRTLFAYEGTNEDELTFKEGEIIHLISKETGEAGWWRGELNGKEGVFPDNFAVQINEL
# Variants of: B1
# Assay: abundance fitness (aPCA) (normalised: wild type 0, dead -1); higher = more abundant; growth selection in yeast, the domain comes from the species named
# Details: Homo sapiens
row,Variant,abundance fitness
1,KEYCRTLFAYEGTNEDELTFKEGEIIHLISKETGEAGWWRGELNGKEGVFKDNFAVQINEL,0.152 ± 0.13
2,KEYCRTLFAYEGTNEDELTFKEGEIIHLISKETGEAGWWRGELNGKEGVFFDNFAVQINEL,-0.677 ± 0.38
3,KEYCRTLFAYEGTNEDELTFKEGEIIHLISKETGEAGWWRGELNGKEGVFVDNFAVQINEL,-0.974 ± 0.21
4,KEYCRTLFAYEGTNEDELTFKEGEIIHLISKETGEAGWWRGELNGKEGVFNDNFAVQINEL,-0.582 ± 0.16
5,KEYCRTLFAYEGTNEDELTFKEGEIIHLISKETGEAGWWRGELNGKEGVFDDNFAVQINEL,-0.487 ± 0.15
6,KEYCRTLFAYEGTNEDELTFKEGEIIHLISKETGEAGWWRGELNGKEGVFEDNFAVQINEL,-0.573 ± 0.19
7,KEYCRTLFAYEGTNEDELTFKEGEIIHLISKETGEAGWWRGELNGKEGVFSDNFAVQINEL,-0.56 ± 0.076
8,KEYCRTLFAYEGTNEDELTFKEGEIIHLISKETGEAGWWRGELNGKEGVFHDNFAVQINEL,-0.866 ± 0.3
9,KEYCRTLFAYEGTNEDELTFKEGEIIHLISKETGEAGWWRGELNGKEGVFMDNFAVQINEL,0.004 ± 0.11
10,KEYCRTLFAYEGTNEDELTFKEGEIIHLISKETGEAGWWRGELNGKEGVFWDNFAVQINEL,-0.533 ± 0.071
11,KEYCRTLFAYEGTNEDELTFKEGEIIHLISKETGEAGWWRGELNGKEGVFIDNFAVQINEL,-0.49 ± 0.14
12,KEYCRTLFAYEGTNEDELTFKEGEIIHLISKETGEAGWWRGELNGKEGVFPCNFAVQINEL,0.009 ± 0.12
13,KEYCRTLFAYEGTNEDELTFKEGEIIHLISKETGEAGWWRGELNGKEGVFPLNFAVQINEL,-0.055 ± 0.059
14,KEYCRTLFAYEGTNEDELTFKEGEIIHLISKETGEAGWWRGELNGKEGVFPNNFAVQINEL,0.008 ± 0.28
15,KEYCRTLFAYEGTNEDELTFKEGEIIHLISKETGEAGWWRGELNGKEGVFPWNFAVQINEL,-0.186 ± 0.12
16,KEYCRTLFAYEGTNEDELTFKEGEIIHLISKETGEAGWWRGELNGKEGVFPVNFAVQINEL,-0.16 ± 0.067
17,KEYCRTLFAYEGTNEDELTFKEGEIIHLISKETGEAGWWRGELNGKEGVFPPNFAVQINEL,-0.081 ± 0.12
18,KEYCRTLFAYEGTNEDELTFKEGEIIHLISKETGEAGWWRGELNGKEGVFPKNFAVQINEL,-0.02 ± 0.12
19,KEYCRTLFAYEGTNEDELTFKEGEIIHLISKETGEAGWWRGELNGKEGVFPFNFAVQINEL,-0.142 ± 0.13
20,KEYCRTLFAYEGTNEDELTFKEGEIIHLISKETGEAGWWRGELNGKEGVFPMNFAVQINEL,0.077 ± 0.12
21,KEYCRTLFAYEGTNEDELTFKEGEIIHLISKETGEAGWWRGELNGKEGVFPQNFAVQINEL,-0.02 ± 0.17
22,KEYCRTLFAYEGTNEDELTFKEGEIIHLISKETGEAGWWRGELNGKEGVFPENFAVQINEL,0.043 ± 0.083

row,Variant,abundance fitness
1,KEYCRTLFAYEGTNEDELTFKEGEIIHLISKETGEAGWWRGELNGKEGVFPRNFAVQINEL,-0.043 ± 0.076
2,KEYCRTLFAYEGTNEDELTFKEGEIIHLISKETGEAGWWRGELNGKEGVFPINFAVQINEL,0.077 ± 0.46
3,KEYCRTLFAYEGTNEDELTFKEGEIIHLISKETGEAGWWRGELNGKEGVFPYNFAVQINEL,-0.085 ± 0.17
4,KEYCRTLFAYEGTNEDELTFKEGEIIHLISKETGEAGWWRGELNGKEGVFPANFAVQINEL,0.053 ± 0.1
5,KEYCRTLFAYEGTNEDELTFKEGEIIHLISKETGEAGWWRGELNGKEGVFPSNFAVQINEL,0.039 ± 0.065
6,KEYCRTLFAYEGTNEDELTFKEGEIIHLISKETGEAGWWRGELNGKEGVFPDNLAVQINEL,0.037 ± 0.06
7,KEYCRTLFAYEGTNEDELTFKEGEIIHLISKETGEAGWWRGELNGKEGVFPDNCAVQINEL,0.084 ± 0.17
8,KEYCRTLFAYEGTNEDELTFKEGEIIHLISKETGEAGWWRGELNGKEGVFPDNMAVQINEL,-0.079 ± 0.08
9,KEYCRTLFAYEGTNEDELTFKEGEIIHLISKETGEAGWWRGELNGKEGVFPDNEAVQINEL,-0.632 ± 0.13
10,KEYCRTLFAYEGTNEDELTFKEGEIIHLISKETGEAGWWRGELNGKEGVFPDNGAVQINEL,-0.32 ± 0.091
11,KEYCRTLFAYEGTNEDELTFKEGEIIHLISKETGEAGWWRGELNGKEGVFPDNKAVQINEL,0.044 ± 0.081
12,KEYCRTLFAYEGTNEDELTFKEGEIIHLISKETGEAGWWRGELNGKEGVFPDNWAVQINEL,-0.296 ± 0.13
13,KEYCRTLFAYEGTNEDELTFKEGEIIHLISKETGEAGWWRGELNGKEGVFPDNQAVQINEL,-0.347 ± 0.13
14,KEYCRTLFAYEGTNEDELTFKEGEIIHLISKETGEAGWWRGELNGKEGVFPDNTAVQINEL,-0.088 ± 0.076
15,KEYCRTLFAYEGTNEDELTFKEGEIIHLISKETGEAGWWRGELNGKEGVFPDNSAVQINEL,0.099 ± 0.067
16,KEYCRTLFAYEGTNEDELTFKEGEIIHLISKETGEAGWWRGELNGKEGVFPDNHAVQINEL,-0.018 ± 0.1
17,KEYCRTLFAYEGTNEDELTFKEGEIIHLISKETGEAGWWRGELNGKEGVFPDNAAVQINEL,0.162 ± 0.062
18,KEYCRTLFAYEGTNEDELTFKEGEIIHLISKETGEAGWWRGELNGKEGVFPDNPAVQINEL,-0.572 ± 0.12
19,KEYCRTLFAYEGTNEDELTFKEGEIIHLISKETGEAGWWRGELNGKEGVFPDNVAVQINEL,0.011 ± 0.053
20,KEYCRTLFAYEGTNEDELTFKEGEIIHLISKETGEAGWWRGELNGKEGVFPDNIAVQINEL,-0.191 ± 0.11
21,KEYCRTLFAYEGTNEDELTFKEGEIIHLISKETGEAGWWRGELNGKEGVFPDNNAVQINEL,-0.625 ± 0.3
22,KEYCRTLFAYEGTNEDELTFKEGEIIHLISKETGEAGWWRGELNGKEGVFPDNRAVQINEL,-0.004 ± 0.069
